Test results reported in PMC4674680, “An in cellulo-derived structure of PAK4 in complex with its inhibitor Inka1” (Nature Communications, 2015).

Key:
[1] = test system: PAK4; assay: Co-immunoprecipitation of HA-Inka1 by FLAG-tagged PAK4 constructs; type: binding, human; conditions: Fig. 1b; mammalian cells; PAK4* = RR48/49AE
Procedure: Transfection of cell culture and immunoprecipitation
Monkey COS-7 cells, human HEK293 and U2OS were grown in DMEM medium with 4,500 mg l^−1 glucose supplemented with 10% bovine calf serum (Hyclone). HeLa cells were grown in Eagle's MEM medium supplemented with L-glutamine, sodium bicarbonate, sodium pyruvate and 10% bovine calf serum. Transient transfections were performed with Lipofectamine 2000 according to recommended protocols. Typically, a total of 5 μg plasmid DNA was used per 60-mm dish; lysates were harvested 18 h later in ice-cold lysis buffer (0.5 ml; 25 mM HEPES, pH 7.3, 100 mM KCl, 5 mM MgCl2, 20 mM β-glycerophosphate, 5% glycerol, 0.5% Triton X-100, 5 mM dithiothreitol, 0.5 mM phenylmethyl sulfonyl fluoride, 1 mM Na3VO4 and 1 × protease inhibitor cocktail (Roche)). To test co-immunoprecipitation of proteins, the lysates were clarified by centrifugation (14,000g) and the clarified lysates were incubated while rolling (2 h) with 20 μl M2 anti-Flag Sepharose (Sigma-Aldrich, A2220). Rabbit anti-Flag (Sigma-Aldrich, F7425) or horseradish peroxidase-coupled anti-HA (Santa Cruz Biotechnology, sc-7392 HRP, 1 μg ml^−1) were used for western blot analysis.

[2] = target: T1, PAK4cat (Homo sapiens, UniProt O96013); assay: In-vitro kinase assay, PAK4cat (phosphorylation of GST-Raf13); type: biochemical; conditions: in vitro
T1 construct: PAK1 (1–545) and PAK4 (286–591), respectively; 6His (N); made in house; host or cells: Escherichia coli BL21-CodonPlus(DE3)
Procedure: Purified PAK1 or PAK4 (50 nM in 25–50 μl) were incubated with 10 μM GST-Raf1S338 peptide in 10 μM ATP (2 μCi of γ32P ATP) of kinase buffer (25 mM HEPES, pH 7.3, 0.1% Triton X-100, 50 mM KCl, 10 mM MgCl2, 1 mM dithiothreitol) at 30 °C for 20 min. Samples were analysed by SDS–PAGE or adsorption of the GST substrate mix onto polyvinylidene difluoride membranes, followed by extensive washing to remove free γ32P-ATP. The synthetic peptides of 95% purity, as determined by HPLC and mass spectrometric analyses (GenScript), were soluble in aqueous PBS. Stock solutions (10 mM) were quantified via calculated extinction coefficients and absorbance measurements at 280 nm and stored at −80 °C. The diluted peptides were incubated at the indicated concentrations with the kinase on ice (10 min) before addition of γ32P ATP and subsequent incubation at 30 °C. The synthetic peptide array (Jerini Biotools) was phosphorylated in situ as described previously.

T1 sequence (O96013 286-591): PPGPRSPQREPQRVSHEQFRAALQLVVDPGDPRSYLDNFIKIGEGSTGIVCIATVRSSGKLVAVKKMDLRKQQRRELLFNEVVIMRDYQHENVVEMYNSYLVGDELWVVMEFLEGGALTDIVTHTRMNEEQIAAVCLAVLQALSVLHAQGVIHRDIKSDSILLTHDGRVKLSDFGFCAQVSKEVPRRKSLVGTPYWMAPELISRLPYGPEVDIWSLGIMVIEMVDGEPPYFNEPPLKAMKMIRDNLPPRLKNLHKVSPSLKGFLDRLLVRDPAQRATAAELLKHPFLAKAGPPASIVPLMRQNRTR

Binding to activated PAK4* (mutated AID) versus wild-type PAK4, in words [1]: significantly better than wild-type PAK4
B1: Inka1: endogenous PAK4 inhibitor, 30-kDa neural crest enriched protein (protein, UniProt Q96EL1 1-287, looked up)
PAK4-inhibitor INKA1: MDMHSARLDSFLSQLRWELLCGRDTGSPSMPGPLQPTSQTGPDVQPSHQLRASGALEEDSVCCVEEEEEEEEEAVVTEDRDAALGGPREHALDWDSGFSEVSGSTWREEELPVSQRPAPSAQPLRRQCLSVSGLPMPSRAPVASVPPVHHPRPKSTPDACLEHWQGLEAEDWTAALLNRGRSRQPLVLGDNCFADLVHNWMELPETGSEGGDGGGHRARARPPQFLLGLSEQLRRRLARARRTAMAGKRLSCPPRPEPELPADVSRFAALMSCRSRQPIICNDVSYL
Affinity relative to AID or iBox-C, in words [2]: much higher affinity than the corresponding AID
